These results are taken from US20230365672A1 (KINDRED BIOSCIENCES, published 2023).

Test [1] addresses T1, biotinylated equine IL31 (immobilized to the biolayer interferometry sensor) (equine, biotinylated, sites not stated).
T1 chain: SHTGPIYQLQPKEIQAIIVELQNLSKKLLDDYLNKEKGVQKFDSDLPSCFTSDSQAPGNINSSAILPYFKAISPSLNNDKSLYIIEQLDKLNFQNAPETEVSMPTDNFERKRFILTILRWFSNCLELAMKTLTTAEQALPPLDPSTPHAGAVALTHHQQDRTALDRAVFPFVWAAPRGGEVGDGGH
Briefly: biolayer interferometry, biotinylated equine IL31 on the sensor, preliminary measurement.

The target in test [2] is T2, canine IL31 with C-terminal polyHis tag (canine, biotinylated (EZ-Link NHS-LC-biotin), sites not stated).
T2 construct: also called biotinylated canine IL31
T2 chain: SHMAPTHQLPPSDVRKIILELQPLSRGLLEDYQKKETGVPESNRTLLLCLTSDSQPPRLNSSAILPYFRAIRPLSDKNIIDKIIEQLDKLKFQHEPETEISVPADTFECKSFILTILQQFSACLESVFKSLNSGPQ
As to the kind of experiment: biolayer interferometry (Octet), biotinylated canine IL31 on streptavidin tips, 2:1 binding model. As for the experimental part: The binding analysis was performed using a biosensor Octet as follows. Briefly, canine IL31 was biotinylated. The free unreacted biotin was removed from biotinylated IL31 by extensive dialysis. Biotinylated canine IL31 was captured on streptavidin sensor tips. The association of four different concentrations (400, 200, 66.6, and 33 nM) of antibody and IL31 (human and canine, in different tests) was monitored for ninety seconds. Dissociation was monitored for 600 seconds. A buffer only blank curve was subtracted to correct for any drift. The data were fit to a 2:1 binding model using ForteBio™ data analysis software to determine the kₒₙ, koff, and the Kd. The buffer for dilutions and all binding steps was: 20 mM phosphate, 150 mM NaCl, pH 7.2.
(BLI is a label-free optical method that tracks binding on a fibre tip over time.)

B1: M14 antibody (as used in Example 7) (antibody, V domains shown)
VH: EVQLQESGPSLVKPSQTLSLTCSVTGDSITSGYWNWIRKFPGNKLEYMGYISYSGITDYNPSLKSRISITRDTSKNQYYLQLNSVTTEDTATYYCARYGNYGYAMDYWGQGTSVTVSS
VL: DIVLTQSPASLAVSLGQRATISCRASESVDTYGNSFMHWYQQKSGQSPKLLIYRASNLESGIPARFGGSGSRTDFTLTIDPVEADDVATYYCQQSYEDPWTFGGGTKLEIK
notes: also called monoclonal antibody M14
The Kd is the concentration at which binding is half-saturated. A high value points to weaker binding. B1 registered a dissociation constant Kd in test [1] of 10 to 50 nM.

B2: caninized M14 IgG-B (antibody, V domains shown)
VH: EVQLVESGPSLVKPGGSLRLTCSVTGDSITSGYWNWIRKFPGNKLEYMGYISYSGITDYNPSLKSRITISRDTSKNQYYLQLNSVTTEDTATYYCARYGNYGYAMDYWGQGTLVTVSS
VL: DIVMTQSPASLSVSLGQRATISCRASESVDTYGNSFMHWYQQKPGQSPKLLIYRASNLESGIPARFGGSGSGTDFTLTIDPVQADDVATYYCQQSYEDPWTFGGGTKLEIKR
notes: canine IgG-B; also called caninized M14 antibody; caninized IL31-mAb M14
As to B2, in test [2], the Kd was < 0.01 nM.
